Tests used:
[1] = biological target: T1, protease resistant A43-FceRIa (K43 to A43 variant of recombinant human FceRIa)
T1 chain 1: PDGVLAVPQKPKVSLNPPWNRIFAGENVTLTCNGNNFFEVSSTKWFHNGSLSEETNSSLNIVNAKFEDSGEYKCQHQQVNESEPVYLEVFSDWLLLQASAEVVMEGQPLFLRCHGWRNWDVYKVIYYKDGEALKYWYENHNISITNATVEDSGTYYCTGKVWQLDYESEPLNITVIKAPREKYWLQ
T1 chain 2: HHHHHH

[2] = biological target: T2, recombinant wild type FceRIa (extracellular region of the alpha chain of the human high-affinity IgE receptor, spacer, 6His)
T2 chain: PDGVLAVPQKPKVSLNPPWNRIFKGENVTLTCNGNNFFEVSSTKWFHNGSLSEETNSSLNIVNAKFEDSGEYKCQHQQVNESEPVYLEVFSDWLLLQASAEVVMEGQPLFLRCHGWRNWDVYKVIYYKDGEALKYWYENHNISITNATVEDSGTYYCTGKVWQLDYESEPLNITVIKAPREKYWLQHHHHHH

B1: plasmin (Sigma P1867) (protein)
chain: KVYLSECKTGNGKNYRGTMSKTKNGITCQKWSSTSPHRPRFSPATHPSEGLEENYCRNPDNDPQGPWCYTTDPEKRYDYCDILECEEECMHCSGENYDGKISKTMSGLECQAWDSQSPHAHGYIPSKFPNKNLKKNYCRNPDRELRPWCFTTDPNKRWELCDIPRCTTPPPSSGPTYQCLKGTGENYRGNVAVTVSGHTCQHWSAQTPHTHNRTPENFPCKNLDENYCRNPDGKRAPWCHTTNSQVRWEYCKIPSCDSSPVSTEQLAPTAPPELTPVVQDCYHGDGQSYRGTSSTTTTGKKCQSWSSMTPHRHQKTPENYPNAGLTMNYCRNPDADKGPWCFTTDPSVRWEYCNLKKCSGTEASVVAPPPVVLLPDVETPSEEDCMFGNGKGYRGKRATTVTGTPCQDWAAQEPHRHSIFTPETNPRAGLEKNYCRNPDGDVGGPWCYTTNPRKLYDYCDVPQCAAPSFDCGKPQVEPKKCPGRVVGGCVAHPHSWPWQVSLRTRFGMHFCGGTLISPEWVLTAAHCLEKSPRPSSYKVILGAHQEVNLEPHVQEIEVSRLFLEPTRKDIALLKLSSPAVITDKVIPACLPSPNYVVADRTECFITGWGETQGTFGAGLLKEAQLPVIENKVCNRYEFLNGRVQSTELCAGHLAGGTDSCQGDSGGPLVCFEKDKYILQGVTSWGLGCARPNKPGVYVRVSRFVTWIEGVMRNN
- plasmin cleavage, Base Peak Chromatogram (LC-MS) [1]: complete absence of a cleavage product in the mutant, protease resistant variant of recombinant A43-FceRIa (black line), whereas the wild type receptor digest peak appears at 30 min (grey line)
- plasmin cleavage, peptides in the Base Peak Chromatogram (LC-MS) [2]: Site K43 (indicated as peptide K in FIG. 2B) of recombinant wt FceRIa was preferentially cleaved whereas plasmin cleavage sites K31, R40, K201, R199, K196 and K142 (indicated as peptide 1-8 in FIG. 2B) were cleaved to lesser extent

From patent publication US20190127438
